Assay results taken from publication PMC13036776, “Structural and Kinetic Basis for the Rational Design of Next-Generation β‑Lactamase Inhibitors” (Journal of Medicinal Chemistry, 2026).

Tested on: O=C(Cc1cccs1)N[C@@H]1C(=O)N2C(C(=O)O)=C(/C=C/c3ccc([N+](=O)[O-])cc3[N+](=O)[O-])CS[C@H]12
Experiment: purified protein
Assay type: biochemical, Pseudomonas aeruginosa
Conditions: active site, catalytic S64 acylation (acyl-enzyme), pH 7.2

Substance	Km (general base K67) [µM]	Vmax (general base K67) [µM/min]	kcat (general base K67) [s⁻¹]	kcat/Km (general base K67) [M⁻¹ s⁻¹]	Km (general base K67, R349 anchor) [µM]	Vmax (general base K67, R349 anchor) [µM/min]	kcat (general base K67, R349 anchor) [s⁻¹]	kcat/Km (general base K67, R349 anchor) [M⁻¹ s⁻¹]
PDC-3 (Pseudomonas-derived cephalosporinase-3, class C β-lactamase AmpC) (Pseudomonas aeruginosa PAO1; R376A/T105A)	10.1 ± 1.5	55.8	85 ± 3	8.4e+06 ± 1.3e+06				
PDC-3 (Pseudomonas-derived cephalosporinase-3, class C β-lactamase AmpC) (Pseudomonas aeruginosa PAO1)					28 ± 1	82.2	152 ± 15	5.4e+06 ± 500000
